The target of one test is His-tagged AvrXa27 (Xanthomonas oryzae pv. oryzae, UniProt A0A0K0GNW2 1-1136). Nature of the test: MST; […]; 50 mM Tris-HCl pH 7.8, 150 mM NaCl, 10 mM MgCl2, 0.05% Tween-20; 25°C; […]. The following applies: both partners purified.
In another test the target is His-tagged PthXo1 (Xanthomonas oryzae pv. oryzae, UniProt B2SU53 1-1373). The test is described as above. The following applies: both partners purified.

B1: His-tagged Xa5 (OsTFIIAγ5), labelled with NT-647 (natural protein, rice (Oryza sativa), UniProt A2XZI2 1-106, looked up)
chain: MATFELYRRSTIGMCLTETLDEMVSSGTLSPELAIQVLVQFDKSMTEALENQVKSKVSIKGHLHTYRFCDNVWTFILTEASFKNEETTEQVGKVKIVACDSKLLSQ
modifications: amine-reactive red fluorescent dye NT-647
For orientation: Kd means the constant that tells how readily two partners part at equilibrium. A higher Kd goes with lower affinity. For the molecule B1, the Kd with His-tagged AvrXa27 and with His-tagged PthXo1 was below 1000 nM throughout.
